# Where no end group is shown, it is not given here.
# Assays:
# Gli3 = assay: Localization of overexpressed GFP-tagged Gli3 in HeLa cells; type: cell-based; conditions: GFP-tagged Gli3-overexpressing HeLa cells
# Experimental: 1×10^5 HELA cells per well of a 6-well plate were transfected with Qiagen Polyfect transfection reagent according to the manufacturer's instructions. The ratio of the amount of DNA to the amount of polyfect transfection reagent was 3 μg DNA/10 μl Polyfect. Constructs used for expression in HELA were the following: GFP-GLI3 (aa 18-1549), GLI3-GFP (aa 1-1522), MYC-GLI3 (aa 18-1596), FLAG-GLI3 (aa18-1596), MYC-B-BOX1 (aa 110-167 of the MID1 protein), ALPHA4-V5 (aa 1-339). 24 h after transfection immunofluorescence was performed. GFP-constructs were treated as described in Schweiger et al., 1999. Immunofluorescence with MYC-tagged and FLAG-tagged constructs was done according to Trockenbacher et al., 2001. FLAG-tagged constructs were detected with anti-FLAG-antibody diluted 1:500, the secondary antibody FITC-antimouse was diluted 1:1000. For MYC-tagged constructs anti-MYC-antibody 1:300 and CY3-antirabbit 1:1000 were used. […]
# Overexpressed Gli3 is predominantly localized in the nucleus (FIG. 10, top left).
# patched gene = assay: Patched-specific semiquantitative RT-PCR of HeLa cells; type: cell-based; conditions: compared to mock-transfected cells
# Experimental: One of the most important targets of the Gli3 transcription factor is the patched gene. In order to analyse HeLa cells for Gli3 activity after treatment with the different molecules, semiquantitative RT-PCR of cells overexpressing the B-Box1 and the α4 protein was carried out (FIG. 13). HeLa cells have previously been tested for Gli3-, Gli1 (another target of the Gli3 transcription factor) and patched-expression.
# α4 = target: T1, α4 (Homo sapiens, UniProt P78318); assay: Yeast two-hybrid interaction of MID1 constructs with α4; type: binding
# T1 construct: expressed in transfected cells; host or cells: L40 yeast strain
# T1 sequence (P78318 1-339): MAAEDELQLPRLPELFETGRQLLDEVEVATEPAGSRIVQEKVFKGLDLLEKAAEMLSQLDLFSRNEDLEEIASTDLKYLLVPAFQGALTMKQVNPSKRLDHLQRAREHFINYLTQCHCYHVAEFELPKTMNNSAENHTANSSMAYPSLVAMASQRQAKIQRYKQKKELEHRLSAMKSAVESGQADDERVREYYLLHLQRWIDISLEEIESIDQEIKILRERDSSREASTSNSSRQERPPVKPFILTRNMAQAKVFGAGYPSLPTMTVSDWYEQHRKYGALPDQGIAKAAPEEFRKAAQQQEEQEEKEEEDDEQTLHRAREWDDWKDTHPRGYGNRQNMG
# Experimental: Yeast two-hybrid screening. For yeast two-hybrid screening, we cloned full-length MID1 cDNA into the pBTM116 vector. We then cotransfected this with a human fetal brain cDNA Matchmaker library in the pGAD10 vector (Clontech) into the L40 yeast strain. We plated the transformants on synthetic medium lacking histidine, leucine and tryptophan (his^− leu^− trp^−) and containing 3-amino-1,2,4, triazole, and incubated the plates at 30° C. for 5 days. We assayed his-positive colonies for β-galactosidase activity with a filter assay^47. We isolated plasmid DNA from β-galactosidase-positive clones and cotransfected this again into L40 yeast with MID1-pBTM116 and controls. We selected plasmids that produced growth on selective plates only in combination with MID1-pBTM116, which were assumed to code for MID1 interactors, and sequenced them.
# Activity of β-galactosidase in yeast liquid cultures. We assayed cells for β-galactosidase activity by the o-nitrophenyl-β-D-galactopyranoside (ONPG) method^47.
# MID1 is a multidomain protein harboring a RING finger, two B-boxes, a coiled-coil region, a fibronectin type III domain and a B30.2 domain^3—all of which are candidate regions for specific protein-protein interactions. To clarify which domain specifically binds α4, we tested several deletion mutants of MID1 for interaction with α4 in the yeast two-hybrid system. […]
# MID1/PP2A complex = target: T2, MID1/PP2A complex (Homo sapiens, UniProt P78318); assay: hFused phosphorylation in cells co-expressing hFused and B-Box1, Western blot; type: cell-based
# T2 construct: endogenous in cells
# T2 sequence (P78318 1-339): T1 sequence (P78318 1-339)
# Experimental: 8×10^5 cells were transfected with hFused-V5 (aa 1-1335) in presence and absence of MYC-B-BOX1 (aa 110-167 of the MID1 protein) using Qiagen polyfect transfection reagent according to the manufacturer's instructions. Cell pellets were resuspended in magic mix (48% urea, 15 mM Tris-HCl, 8.7% glycerin, 1% SDS, 0.004% Bromphenol Blue, 143 mM β-Mercaptoethanol). After sonification, cell lysate of cells expressing hFused and hFused together with B-Box1 was separated on a 6% SDS-gel (200 μg protein loaded in each lane), blotted on PVDF-membranes and incubated with anti-V5-antibody (1:3000). Secondary HRP-antimouse-antibody was diluted 1:2000.
# A dominant-negative effect of the B-Box1-peptide leading to an inhibition of […] induced ubiquitination of microtubules-associated PP2A and resulting in a enrichment of microtubules-associated PP2A was shown previously.
# Cell lysate of cells expressing only hFused (con) and hFused together with the B-Box1 (+B-Box1) was separated on an SDS-Page, blotted and incubated with an anti-V5-antibody. In order to stop all kinase and phosphatases directly after cell lysis, cells were lysed in an SDS- and urea-containing buffer.
substance,measurement,setting,value
"B-Box1: peptide derived from the MID1 domain that is responsible for α4 binding (amino acids 108-165), expressed from plasmid (ANTMTSAEKVLCQFCDQDPAQDAVKTCVTCEVSYCDECLKATHPNKKPFTGHRLIEPI; cysteine pairing not given here; also: myc tag; UniProt O15344 108-165, looked up, fragment)",Gli3 localization,Gli3,significant retention of the active form of Gli3 in the cytosol
same,patched message,patched gene,significant reduction of the patched message
same,Interaction with α4,α4,sufficient for a strong interaction with α4
same,Ratio between phosphorylated and dephosphorylated hFused-form,"MID1/PP2A complex; FIG. 15c, control 10.3",3
same,Ratio between phosphorylated and dephosphorylated hFused-form,"MID1/PP2A complex; FIG. 16c, reproduction, control 8.3",3

# From patent US8202696B2, “Means for use in treating diseases correlated with or caused by non-physiological levels of microtubule-associated PP2Ac” (Max-Planck-Gessellschaft zur Forderung der Wissenschaften …, priority 2002, dated 2012)
